From the nanobody polyreactivity screen of Harvey et al. (2022) come the findings set out here.

A short description of the series: yeast display, Sf9 membrane polyspecificity reagent, FACS + sequencing; frameworks hold sequencing errors. Put shortly:
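Galactose induction of a Saccharomyces cerevisiae BJ5465 synthetic nanobody display library ran 36–48 hours. The cells were then stained for 1 hour at 4 °C with 10% biotinylated, detergent-solubilized Sf9 membrane reagent, pulled down on streptavidin microbeads and FACS-sorted into low and high (top ~1%) gates on expression and reagent-binding fluorescence. Labels for polyreactivity follow the gate of origin.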
On to “QVQLVESGGGLVQAGGSLRLSCAASGITFSGNTMGWYRQAPGKERELVAAISSGGSTYYADSVKGRFTISRDNAKNTVYLQMNSLKPEDTAVYYCAVDYFYQDGRGYNEYWGQGTQVTVSS”, for which the “polyreactivity (PSR sort gate)” value is “low polyreactivity”. Take “QVQLVESGGGLVQAGGSLRLSCAASGITFSGYVMGWYLQAPGKERELVAAISRSGGSTYYADSVKGRYTISRDNAKNTVYLQMNSLKPEDTAVYYCATASRTSRTGWAGYFWGQGTQVTVSS”: the “polyreactivity (PSR sort gate)” value is given as “high polyreactivity”.

On to “QVQLVESGGGLVQAGGSLRLSCAASGITFSHNAMGWSRPAPGKERELVAVIRWSGGRTYYADSVKGRFTISRDNAKNTVYLQMNSLKPEDTAVYYCAARPSTAFPYGKIMDYWGQGTQVTVSS”, for which the “polyreactivity (PSR sort gate)” value is “low polyreactivity”.

Take “QVQLVESGGGLVQAGGSLRLSCAASGITFSKNAMGWYRKEPGKEKELVAAISRGGSTYYADSEKGRFTISRDNAKNTVYLQMNSLKPEDTAVYYCAARSRYYYRRPQISYDYWGQGTQVTVSS”: the “polyreactivity (PSR sort gate)” value is on record as “low polyreactivity”. Consider “QVQLVESGGGLVQAGGSLRLSCAASGITFSKYAMGWYRQAPGKERELVAAISQRGGSKYYADSVKGRFTISRDNAKNTVYLQMNSLKPEDTAVYYCNAEFYWSIIAYEYWGQGTQVTVSS”, for which the “polyreactivity (PSR sort gate)” value was “high polyreactivity”.

“QVQLVESGGGLVQAGGSLRLSCAASGITFSRNAMGWYRQAPGKERELVATITSGGSTNYADSVKGRFTISRDNAQNTVYLQMNSLKPEDTAVYYCNAVWNTFISGRSYDYWGQGTQVTVSS”: the “polyreactivity (PSR sort gate)” value was “low polyreactivity”. With “QVQLVESGGGLVQAGGSLRLSCAASGITFSRNTMGWYRQAPGKERELVAAISRSGASTYYADSVKGRFTISRDNAKNTVYLQMNSLKPEDTAVYYCAARFHYPGGPRYYYWGQGTQVTVSS”, the “polyreactivity (PSR sort gate)” value was “high polyreactivity”. For “QVQLVESGGGLVQAGGSLRLSCAASGITFSRYAMGWYRQAPGKERELVAAISWSGTSTYYADSVKGRFTISRDNAKNTVYLQMNSLKPEDTAVYYCAASYGYYRYGYWGQGTQVTVSS”, the “polyreactivity (PSR sort gate)” value is recorded as “high polyreactivity”.

Consider “QVQLVESGGGLVQAGGSLRLSCAASGITFSRYAMGWYRQAPGKERELVATITFSGTSTFYADSVKGRFTISRDNAKNRFYLQMNSLKPEDTAVYYCARLRFGSWSTYYYWGQGTQVTVSS”, for which the “polyreactivity (PSR sort gate)” value is given as “low polyreactivity”. The value for “QVQLVESGGGLVQAGGSLRLSCAASGITFSRYAMGWYRQAPGKERELVATITFSGTSTFYADSVKGRFTISRDNAKNTVYLQMNSLKPEDTAVYYCARLRFGSWSTYYYWGQGTQVTVSS” was “low polyreactivity”; that for “QVQLVESGGGLVQAGGSLRLSCAASGITFSSNAMGWSRQAPGKERELVAAISSSGGRTYYADSVKVRFTISRDYAKNTVYLQMNSLKPEDTAVYYCAKTSRYYYYSRLYYWGQGTKVTVSS” was “high polyreactivity”.

As for “QVQLVESGGGLVQAGGSLRLSCAASGITFSSYAMGWSRQAPGKERELVAAITSRGGSTYYADSVKGRFTISRDNAKNTVYLQMNSLKPEDTAVYYCNASRVRRWNDYYKKFDYWGQGTQVTVSS”, the “polyreactivity (PSR sort gate)” value is on record as “high polyreactivity”. Consider “QVQLVESGGGLVQAGGSLRLSCAASGITFSSYAMGWYRQAPGKERELVAGITRRGGITYYADSVKGRFTISRDNAKNTVYLQMNSLNPEDTAVYYCAATHRFRSGSPDGGYGYWGQGTQVTVSS”, for which the “polyreactivity (PSR sort gate)” value is reported as “high polyreactivity”.

For the sequence “QVQLVESGGGLVQAGGSLRLSCAASGITFSSYAMGWYRQAPGKERELVAGITRRGRITYYADSVNGRFTISRDNAKNTVYLQMNSLKPEDTAVYYCAATHRFRTGSPDGGFGYWGQGTQVTVSS”, the “polyreactivity (PSR sort gate)” value is on record as “high polyreactivity”.

Take “QVQLVESGGGLVQAGGSLRLSCAASGITFSVYTMGWYRPAPGKERELVAAIDSDGITNYADSVKGRFTISRDNAKNNVYLQMNSLKPEDTAVYYCAKQSGRADGVSGFDYWGQGTQVTVSS”: the “polyreactivity (PSR sort gate)” value is “low polyreactivity”. Consider “QVQLVESGGGLVQAGGSLRLSCAASGITFSYNAMGWSRQAPGKERELVAAISSNSDSTYYADSVKGRFTISRDNAKNTVYLQMNSLKPEDTAVYYCAADTPDAPDYSGFYYWGQGSQVTVSS”, for which the “polyreactivity (PSR sort gate)” value is listed as “low polyreactivity”. Turning to “QVQLVESGGGLVQAGGSLRLSCAASGITFSYNAMGWYRPAPGKERELVAAIRVGDGSTYYADSVKGRFTISRDNAKNTVYLQMNSLNPEDTAVYYCNARYLRLRYPYTDEYNYWGQGTQVTVSS”, the “polyreactivity (PSR sort gate)” value is on record as “low polyreactivity”. The value for “QVQLVESGGGLVQAGGSLRLSCAASGITFSYNAMGWYRPAPGKERELVAAISSNSDSTYYADSVKGRFTISRDNAKNTVYLQMNSLKPEDTAVYYCAADTPDAPDYSGFYYWGQGTQVTVSS” was “low polyreactivity”; that for “QVQLVESGGGLVQAGGSLRLSCAASGITFSYNARGWYRQAPGKERELVAAIRVGDGSTYYADSVKGRFTISRDNAKNTVYLQMHSLKPEDTAVYYWNARYLRLRYPYTDEYNYWGQGTQVTVSS” was “low polyreactivity”.

As for “QVQLVESGGGLVQAGGSLRLSCAASGITFSYYALGWYRQAPGKERELVAVISAGGGTTYYADSVKGRFTISRDNAKNTVYLQMNSLKPEDTAVYYCAVKIVVWWGEYDYWGQGTQVTVSS”, the “polyreactivity (PSR sort gate)” value is listed as “high polyreactivity”. As for “QVQLVESGGGLVQAGGSLRLSCAASGITFTDYAMGWYRQAPGKERELVAAISSRGGSTYYADSVQGRFTISRDNAKNTVYVQMNSLKPEDTAVHYCNARFVRRGSGYDYWGQGTQVTVSS”, the “polyreactivity (PSR sort gate)” value is “high polyreactivity”.

In the case of “QVQLVESGGGLVQAGGSLRLSCAASGITFTGNAMGWYRQAPGKERELVAAISNRGGSTYYADSVKGRFTISRDNAKNTVYLQMNSLKPEDTAVYYCRTSTPRRVSGNSWGQGTQVTVSS”, the “polyreactivity (PSR sort gate)” value was “high polyreactivity”.

“QVQLVESGGGLVQAGGSLRLSCAASGITFTGNAMGWYRQAPGKERELVAAISNRGGSTYYADSVKGRFTISRDNAKNTVYLQMNSLKPEDTAVYYCRTSTPRRVSGNYWGQGTQVTVTS”: the “polyreactivity (PSR sort gate)” value was “high polyreactivity”. The value for “QVQLVESGGGLVQAGGSLRLSCAASGITFTGYAMGWSRQAPGKERELVAAISKRGARTYYADSVKGRFTNSRDNAKNTVYIQMNSLKPEDTAVYYCAADSTAQDIAGLYYWGQGTQVTVSS” was “high polyreactivity”; that for “QVQLVESGGGLVQAGGSLRLSCAASGITFTGYAMGWYRQAPGKERELVAAITWSSGSTYYADSVKGRFTISRDNAKNTVYLQMNSLKPEDTAVYYCNAGYWYDGPDYIPEYDYWGQGTQVTVSS” was “low polyreactivity”; that for “QVQLVESGGGLVQAGGSLRLSCAASGITFTVNAMGWYRQAPGKERELVAAITYSGGNTYYADSVKGRFTISRDTAKNTVYLQMNSLKPEDTAVYYCAADNWPWPEKPDKSILYDYWGQGTQVTVSS” was “low polyreactivity”.

For the sequence “QVQLVESGGGLVQAGGSLRLSCAASGITFTVNSMGWYRQAPAKERELVAAISNDGSTYYADSVKGRFTISRDNAKNSVYLQMNRLKTEDTAVYYCAADTWDVFGPYGYDYWGQGTQVTVSS”, the “polyreactivity (PSR sort gate)” value is recorded as “low polyreactivity”. Take “QVQLVESGGGLVQAGGSLRLSCAASGITFTVYAMGWYRQATRKERELVAAITSTGSTNYADSVKGLFTISRDNAKNTVYLQMNSLKPEDTAVYYCAADRQITVYAFDYWGQGTQVTVSS”: the “polyreactivity (PSR sort gate)” value is recorded as “low polyreactivity”. As to “QVQLVESGGGLVQAGGSLRLSCAASGITFTYNAMGWYRPAPGKERELVAAITWSGGSTFYADSVKGRFTISRDNAKNTVYLQMNSLKPEDTAVYYCARDTELYDRWLDYWGQGTQVTVSS”, the “polyreactivity (PSR sort gate)” value is recorded as “low polyreactivity”.

On to “QVQLVESGGGLVQAGGSLRLSCAASGITFTYNAMGWYRQAPGKERELVAAITWSGGSTYYADSVKGRFTISRDNAKYTVYLQMNSLKPEDTAVYYCNAKHFAYSVAHPYLRYGYDYWGQGTQVTVSS”, for which the “polyreactivity (PSR sort gate)” value is recorded as “low polyreactivity”.

Regarding “QVQLVESGGGLVQAGGSLRLSCAASGITFTYYAMGWYRQAPGKERELVAAINWNGGSTYYADSVKGRFTISRDNAKNTVYLQMNSLKPEDTAVYYCAAEFYIYGFVKFDYWGQGTQVTVSS”, the “polyreactivity (PSR sort gate)” value is given as “high polyreactivity”. Turning to “QVQLVESGGGLVQAGGSLRLSCAASGITFTYYAMGWYRQAPGKERELVASITIGGGSTYYADSVKGRFTISRDNAKKTVYLQLNSLKPEYTAVYYCNAAFSVRHLYRYDYWGQGTQVTVSL”, the “polyreactivity (PSR sort gate)” value was “low polyreactivity”. The value for “QVQLVESGGGLVQAGGSLRLSCAASGITFTYYARGWYRQAPGKEMELVAAISWSGGSTYYADSVKGRFTISRDNAKNTVYLQMNSLKPEDTAVYYCAATFSRFAYYYWGQGTQVTVSS” was “high polyreactivity”; that for “QVQLVESGGGLVQAGGSLRLSCAASGITFVANAMGWYRQAPGKERELVAAISYSGASTYADSVKGRFTISRDNAKNTVYLQMNSLKPEDTAVYYCAKDGPYTYGREIYVYWGQGTLVTVSS” was “low polyreactivity”. The value for “QVQLVESGGGLVQAGGSLRLSCAASGITFVANAMGWYRQAPGKETELVAGITQTGGSTYYADSVKGRFTISRDKAKNTVYLQMNSQKPEDTAVYYCAATYRRLRYGKLYYYWGQGTQVTVSS” was “high polyreactivity”; that for “QVQLVESGGGLVQAGGSLRLSCAASGITFVDNAMGWYRQAPGKERELVAAISFSGDTTYYADSVKGRFTISRDNEKNTVYLQMNSLKPEDTAVYYCAAEYYYTWVYQYWEMDYWGQGTQVTVSS” was “low polyreactivity”. Under “QVQLVESGGGLVQAGGSLRLSCAASGITFVDYAMGWYRQAPGKEWELVAAITTGGSTNYADSVKGRFTISRDNAKNTVYLQMNRLKPEDTAVYYCNKRPVILYDYWGQGTQVTVSS” stands “low polyreactivity”.

Consider “QVQLVESGGGLVQAGGSLRLSCAASGITFVFNVMGWSRQAPGKERELVADIRSGGTTNYADSVKGRFTISRDNAKNTVYIQMNSLKPEDTAVYYCAKEKYDYVGDYEVDYWGQGTQVTVSS”, for which the “polyreactivity (PSR sort gate)” value is “low polyreactivity”. The value for “QVQLVESGGGLVQAGGSLRLSCAASGITFVFYTMGWYRQAPGKERELVAAITSSGVRTSYADSVKGRFTISRDNAKNTVYLQMNSLKPEDTAVYYCAAKPTYVHKPGYNYWGQGTQVTVSS” was “high polyreactivity”. In the case of “QVQLVESGGGLVQAGGSLRLSCAASGITFVGNAMGWYRQAPGKERELVAAITSSGSTHYADSVKGRFTISRDNAKNTVYLQMNSLKPEDTAVYYCAAVTRFSGGLYYYWGQGTQVTVSS”, the “polyreactivity (PSR sort gate)” value is “high polyreactivity”.
